Where two headings read alike, the source gives them in different places. Numbered stars: 1 amine (or outer) side, 2 acyl side, 3 side chain; on linkers, the order of the positions; unused ones are H or OH. Square brackets hold non-standard residues; d marks the D form. Primed or numbered codes have the meaning given here. Side chains are listed from the residue outwards. Ends that are not written are not given here. Peptide text beside a SMILES is read from it. * marks the point of attachment. C18 = C18 fatty acid (C16-C22 fatty acids conjugated via γGlu/8-amino-3,6-dioxaoctanoic acid spacers); C18″ = C18 fatty acid moiety (of 2OEG-γGlu-C18, K*); C20 = C20 fatty acid moiety (of 2OEG-γGlu-C20, K**); C20 diacid = O=C(O)CCCCCCCCCCCCCCCCCCC(=O)*; γGlu = O=C(O)[C@H](CCC(=O)[*:2])N[*:1]; αMeR = C[C@](N)(CCCNC(=N)N)C(=O)O; AEEA = NCCOCCOCC(=O)O; Aib = CC(C)(N)C(=O)O
T1: human glucose-dependent insulinotropic polypeptide receptor (GIPR), expressed on CHO-K1 cells (human, UniProt P48546 22-466)
T1 sequence (looked up): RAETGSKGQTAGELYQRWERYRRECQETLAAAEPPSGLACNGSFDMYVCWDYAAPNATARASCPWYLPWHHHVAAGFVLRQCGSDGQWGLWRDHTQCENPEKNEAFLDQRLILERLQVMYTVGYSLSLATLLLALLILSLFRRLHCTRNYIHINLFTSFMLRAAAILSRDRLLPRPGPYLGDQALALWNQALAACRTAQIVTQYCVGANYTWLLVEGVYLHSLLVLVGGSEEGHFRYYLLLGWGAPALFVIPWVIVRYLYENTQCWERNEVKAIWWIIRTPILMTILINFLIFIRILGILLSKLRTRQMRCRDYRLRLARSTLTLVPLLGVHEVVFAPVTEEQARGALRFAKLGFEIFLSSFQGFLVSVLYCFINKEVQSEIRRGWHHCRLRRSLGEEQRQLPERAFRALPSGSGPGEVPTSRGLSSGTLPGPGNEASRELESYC

B1: SEQ ID NO. 110 (peptide)
peptide: Y[Aib]QGTFTSDYSK([AEEA-AEEA-γGlu-C20])YLDYMMQ[αMeR]DFVKWLLEGGPSSGAPPPS-NH2
modifications: not fully specified (residue 24); printed as YAibQGT FTSDY SK**YLD YMMQαR DFVB*W LLEGG PSSGA PPPS

Experiments:
[1] = In vivo efficacy in mAMLN (obese and NASH) mice, 4 weeks; conditions: after 4 weeks
[2] = In vivo efficacy in CDA-HFD (NASH) mice, 4 weeks; conditions: Example 16; for body weight compared to vehicle-treated control, in words: 20 nmol/kg s.c. Q2D, 4 weeks; for liver enzymes and liver steatosis compared to vehicle-treated control, in words: end of treatment
Experimental: This study was conducted to evaluate the efficacy of SEQ ID NOs. […] SEQ ID NOs. The peptides were delivered at 0.02% PS80 in PBS and dosing volume was 10 mL/kg. Control group was administered by vehicle without peptide.
Body weight changes were monitored Q2D; serum chemistry (end); hepatic TG (end); and histological analysis (end). […]

[3] = rat, in vivo, iv, 100 nmol/kg
Experimental: This study was conducted to evaluate the PK profile of SEQ ID NOs. 77, 102, and 103 and compare the PK profile by the different lipidated structure of peptides in rat plasma by IV administration. SEQ ID NOs. The peptides were delivered at 0.02% PS80 in PBS and dosing volume was 2.5 mL/kg.
The animals were not fasted prior to dosing. 0.2-0.4 mL of whole blood was taken from vein at each time point (0.167, 0.5, 1, 2, 4, 6, 8, 24, and 48 hr after administration) and transferred into the heparin coated tube.
The resulting plasma of 0.1-0.2 mL obtained by centrifugation of the blood samples was transferred into the tube and stored at −70° C. until analysis. The concentrations of peptides in plasma were determined by LC-MS/MS analysis.

[4] = target: T2, human glucagon receptor (GCGR), expressed on CHO-K1 cells (human, UniProt P47871 26-477); assay: cell-based or functional assay
[5] = target: T1, human glucose-dependent insulinotropic …; assay: cell-based or functional assay
[6] = target: T3, human GLP-1 receptor (GLP-1R), expressed on CHO-K1 cells (human, UniProt P43220 24-463); assay: cell-based or functional assay
[7] = target: T2, human glucagon receptor (GCGR), …; assay: cell-based or functional assay; remark: listed apart in the source
[8] = target: T1, human glucose-dependent insulinotropic …; assay: cell-based or functional assay; remark: listed apart in the source
[9] = target: T3, human GLP-1 receptor (GLP-1R), …; assay: cell-based or functional assay; remark: listed apart in the source
[10] = target: T2, human glucagon receptor (GCGR), …; assay: cell-based or functional assay; remark: listed apart in the source
[11] = target: T1, human glucose-dependent insulinotropic …; assay: cell-based or functional assay; remark: listed apart in the source
[12] = target: T3, human GLP-1 receptor (GLP-1R), …; assay: cell-based or functional assay; remark: listed apart in the source
[13] = target: T2, human glucagon receptor (GCGR), …; assay: cell-based or functional assay; remark: listed apart in the source
[14] = target: T1, human glucose-dependent insulinotropic …; assay: cell-based or functional assay; remark: listed apart in the source
[15] = target: T3, human GLP-1 receptor (GLP-1R), …; assay: cell-based or functional assay; remark: listed apart in the source
[16] = target: T2, human glucagon receptor (GCGR), …; assay: cell-based or functional assay; remark: listed apart in the source
[17] = target: T1, human glucose-dependent insulinotropic …; assay: cell-based or functional assay; remark: listed apart in the source
[18] = target: T3, human GLP-1 receptor (GLP-1R), …; assay: cell-based or functional assay; remark: listed apart in the source

T2 sequence (P47871 26-477): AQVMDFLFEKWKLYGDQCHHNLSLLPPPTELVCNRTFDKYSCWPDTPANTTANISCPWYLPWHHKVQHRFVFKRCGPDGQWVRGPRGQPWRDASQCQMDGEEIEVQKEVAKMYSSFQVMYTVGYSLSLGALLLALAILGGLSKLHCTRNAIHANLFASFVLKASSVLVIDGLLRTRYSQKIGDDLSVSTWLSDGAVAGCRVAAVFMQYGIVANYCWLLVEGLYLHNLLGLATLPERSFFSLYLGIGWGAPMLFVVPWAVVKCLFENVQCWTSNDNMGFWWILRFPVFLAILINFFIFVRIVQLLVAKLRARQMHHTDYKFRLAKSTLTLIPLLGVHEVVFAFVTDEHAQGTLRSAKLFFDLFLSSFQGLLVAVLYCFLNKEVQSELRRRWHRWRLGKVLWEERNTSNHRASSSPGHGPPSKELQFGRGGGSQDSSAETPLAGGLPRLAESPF

Molecule	Ratio vs. GLP-1R [4]	Relative % to native ligand [4] [%]	Ratio vs. GLP-1R [5]	Relative % to native ligand [5] [%]	Ratio vs. GLP-1R [6]	Relative % to native ligand [6] [%]	Ratio vs. GLP-1R [7]	Relative % to native ligand [7] [%]	Ratio vs. GLP-1R [8]	Relative % to native ligand [8] [%]	Ratio vs. GLP-1R [9]	Relative % to native ligand [9] [%]	also measured
97 (Y[Aib]QGTFTSDYSK([AEEA-AEEA-γGlu-C18])YLDYMMQRDFVK(N‑Biotinoyl‑N'‑(6-maleimidohexanoyl)hydrazide)WLLEGGPSSGAPPPS-NH2) [compound 97]	–	–	–	–	–	–	–	–	–	–	–	–	NAS score, in words [1]: statistically decreased more than the level of tirzepatide; hepatic steatosis (histological score), in words [1]: significantly reduced; liver weight, visceral fat weight, liver enzymes, and liver steatosis compared to vehicle-treated control, in words [1]: significantly reduced
CSCC[C@H](NC(=O)[C@H](Cc1ccc(O)cc1)NC(=O)[C@H](CC(=O)O)NC(=O)[C@H](CC(C)C)NC(=O)[C@H](CC(C)C)NC(=O)[C@H](CCCCNC(=O)COCCOCCNC(=O)COCCOCCNC(=O)CC[C@H](NC(=O)CCCCCCCCCCCCCCCCCCC(=O)O)C(=O)O)NC(=O)[C@H](CO)NC(=O)[C@H](Cc1ccc(O)cc1)NC(=O)[C@H](CC(=O)O)NC(=O)[C@H](CO)NC(=O)[C@@H](NC(=O)[C@H](Cc1ccccc1)NC(=O)[C@@H](NC(=O)CNC(=O)[C@H](CCC(N)=O)NC(=O)C(C)(C)NC(=O)[C@@H](N)Cc1ccc(O)cc1)[C@@H](C)O)[C@@H](C)O)C(=O)N[C@@H](CCSC)C(=O)N[C@@H](CCC(N)=O)C(=O)N[C@@H](CCCNC(=N)N)C(=O)N[C@@H](CC(=O)O)C(=O)N[C@@H](Cc1ccccc1)C(=O)N[C@H](C(=O)N[C@@H](CCC(N)=O)C(=O)N[C@@H](Cc1c[nH]c2ccccc12)C(=O)N[C@@H](CC(C)C)C(=O)N[C@@H](CC(C)C)C(=O)N[C@@H](CCC(=O)O)C(=O)NCC(=O)NCC(=O)N1CCC[C@H]1C(=O)N[C@@H](CO)C(=O)N[C@@H](CO)C(=O)NCC(=O)N[C@@H](C)C(=O)N1CCC[C@H]1C(=O)N1CCC[C@H]1C(=O)N1CCC[C@H]1C(=O)N[C@@H](CO)C(N)=O)C(C)C [compound 103] (H-Y[Aib]QGTFTSDYSK([AEEA-AEEA-γGlu-C20 diacid])LLDYMMQRDFVQWLLEGGPSSGAPPPS-NH2; N-terminus and C-terminus assumed)	–	–	–	–	–	–	–	–	–	–	–	–	efficacy in the NASH model, in words [2]: superior efficacy compared to SEQ ID NO. 77; hepatic steatosis score compared to CDA-HFD control, in words [2]: significantly reduced; scores of hepatocytes inflammation and NAS score, in words [2]: statistically reduced; body weight compared to vehicle-treated control, in words [2]: reduce body weight; liver enzymes and liver steatosis compared to vehicle-treated control, in words [2]: reduce liver enzymes and liver steatosis significantly; AUCinf/dose [3]: 629.51 ± 76.87 kg·h/L; half-life [3]: 9.59 ± 1.32 h
CSCC[C@H](NC(=O)[C@H](Cc1ccc(O)cc1)NC(=O)[C@H](CC(=O)O)NC(=O)[C@H](CC(C)C)NC(=O)[C@H](CC(C)C)NC(=O)[C@H](CCCCNC(=O)COCCOCCNC(=O)CC[C@H](NC(=O)CCCCCCCCCCCCCCCCCCC(=O)O)C(=O)O)NC(=O)[C@H](CO)NC(=O)[C@H](Cc1ccc(O)cc1)NC(=O)[C@H](CC(=O)O)NC(=O)[C@H](CO)NC(=O)[C@@H](NC(=O)[C@H](Cc1ccccc1)NC(=O)[C@@H](NC(=O)CNC(=O)[C@H](CCC(N)=O)NC(=O)C(C)(C)NC(=O)[C@@H](N)Cc1ccc(O)cc1)[C@@H](C)O)[C@@H](C)O)C(=O)N[C@@H](CCSC)C(=O)N[C@@H](CCC(N)=O)C(=O)N[C@@H](CCCNC(=N)N)C(=O)N[C@@H](CC(=O)O)C(=O)N[C@@H](Cc1ccccc1)C(=O)N[C@H](C(=O)N[C@@H](CCC(N)=O)C(=O)N[C@@H](Cc1c[nH]c2ccccc12)C(=O)N[C@@H](CC(C)C)C(=O)N[C@@H](CC(C)C)C(=O)N[C@@H](CCC(=O)O)C(=O)NCC(=O)NCC(=O)N1CCC[C@H]1C(=O)N[C@@H](CO)C(=O)N[C@@H](CO)C(=O)NCC(=O)N[C@@H](C)C(=O)N1CCC[C@H]1C(=O)N1CCC[C@H]1C(=O)N1CCC[C@H]1C(=O)N[C@@H](CO)C(N)=O)C(C)C [compound 102] (H-Y[Aib]QGTFTSDYSK([AEEA-γGlu-C20 diacid])LLDYMMQRDFVQWLLEGGPSSGAPPPS-NH2; N-terminus and C-terminus assumed)	–	–	–	–	–	–	–	–	–	–	–	–	scores of hepatocytes inflammation and NAS score, in words [2]: statistically reduced; body weight compared to vehicle-treated control, in words [2]: reduce body weight; liver enzymes and liver steatosis compared to vehicle-treated control, in words [2]: reduce liver enzymes and liver steatosis significantly; AUCinf/dose [3]: 672.93 ± 32.13 kg·h/L; half-life [3]: 9.77 ± 0.89 h
Y[Aib]QGTFTSDYSK([AEEA-AEEA-γGlu-C18″])LLDYMMQQDFVQWLLEGGPSSGAPPPS-NH2 [SEQ ID NO. 100]	56	30	103	55	100	54	–	–	–	–	–	–	–
Y[Aib]QGTFTSDYSK([AEEA-AEEA-γGlu-C18″])LLDYMMQ[αMeR]DFVQWLLEGGPSSGAPPPS-NH2 [SEQ ID NO. 101]	12	89	65	472	100	722	–	–	–	–	–	–	–
B1	–	–	–	–	–	–	29	11	272	105	100	39	–
Y[Aib]QGTFTSDYSK([AEEA-AEEA-γGlu-C20])YLDYMMQ[αMeR]DFVQWLLEGGPSSGAPPPS-NH2 [SEQ ID NO. 107]	–	–	–	–	–	–	37	14	537	200	100	37	–
Y[Aib]QGTFTSDYSK([AEEA-AEEA-γGlu-C18″])LLDYMMQRDFVQWLLEGGPSSGAPPPS-NH2 [Peptide No. 5-3D]	26	56	105	230	100	219	–	–	–	–	–	–	Relative % to non-lipidated peptide [10]: 1%; Relative % to non-lipidated peptide [11]: 15%; Relative % to non-lipidated peptide [12]: 19%; Relative % to native ligand [13]: 11%; Relative % to native ligand [14]: 1050%; Relative % to native ligand [15]: 119%; Ratio vs. GLP-1R [16]: 9; Ratio vs. GLP-1R [17]: 880; Ratio vs. GLP-1R [18]: 100
Y[Aib]QGTFTSDYSK([AEEA-AEEA-γGlu-C20])LLDYMMQ[αMeR]DFVQWLLEGGPSSGAPPPS-NH2 [SEQ ID NO. 108]	–	–	–	–	–	–	83	39	971	451	100	46	–

Source: patent US20250296960A1, “PEPTIDE COMPOSITIONS AND METHODS OF USE THEREOF” (priority 2022, published 2025)
